Data from patent publication US20260201069A1, “ANTIBODIES THAT SPECIFICALLY BIND MODIFIED OLIGONUCLEOTIDES” (Hoffmann-La Roche Inc., priority 2024, published 2026).

Columns and labels:
Format in all cases: binding
DNA1-Bi = experiment: Hybridoma antibody specificity immunoassay; conditions: hybridoma antibody subclones, Table 1-4
Excerpt: (§1) From two selected animals, spleen cells were fused to Ag8 cells to generate antibody-producing hybridomas using state-of-the-art hybridoma cell technology. After cell fusion, hybridomas were screened for specific reactivity with LNA-containing ASOs using DNA-containing ASOs for specificity evaluation.
(§2) In more detail, from two cell fusions, 3840 initial hybridoma clones resulting in 33 primary hybridoma clones were obtained. Thereof, 11 were selected for further characterization of binding characterization by biomolecular interaction analysis (kinetic and thermodynamic surface plasmon resonance). Five primary hybridoma clones were further processed by subcloning to generate monoclonal hybridoma cell culture clones.
(§3) From immunoreactive mice (2 animals selected), spleen cells were fused to Ag8 cells to generate antibody-producing fusion cells using state-of-the-art hybridoma cell technology. After cell fusion, hybridomas were screened for specific reactivity with LNA-containing ASOs using DNA-containing ASOs for specificity evaluation.
(§4) From two cell fusions, 3840 initial hybridoma clones resulting in 33 primary hybridoma clones were obtained. Thereof, 11 were selected for further characterization of binding properties by biomolecular interaction analysis (kinetic and thermodynamic surface plasmon resonance). Finally, 5 primary hybridoma clones were further processed by subcloning to generate monoclonal hybridoma cell culture clones (Tables 1-3 and 1-4).

DNA4b-Bi = experiment: Hybridoma antibody specificity immunoassay; conditions: hybridoma antibody subclones, Table 1-4
Excerpt: as §1, §2, §3, §4

LNA2-Bi = experiment: Hybridoma antibody specificity immunoassay; conditions: hybridoma antibody subclones, Table 1-4
Excerpt: as §1, §2, §3, §4

DNA2-Bi = experiment: Hybridoma antibody specificity immunoassay; conditions: hybridoma antibody subclones, Table 1-4
Excerpt: as §1, §2, §3, §4

LNA1-Bi = experiment: Hybridoma antibody specificity immunoassay; conditions: hybridoma antibody subclones, Table 1-4
Excerpt: as §1, §2, §3, §4

LNA4b-Bi = experiment: Hybridoma antibody specificity immunoassay; conditions: hybridoma antibody subclones, Table 1-4
Excerpt: as §1, §2, §3, §4

DNA = experiment: Epitope mapping solid phase immunoassay (ELISA); conditions: signal-to-noise (S/N) class
Excerpt: (§5) The epitope was mapped using immunoassays with capture molecules containing the following binding epitopes as well as combinations thereof: • LNA (2′-0,4-C-methylene), • phosphorothioate in the NA backbone, • nucleotides/sequence of bases, • DNA, • GalNAc-C6-modification.
(§6) The results of the epitope characterization of the antibodies according to the current invention by solid phase immunoassay (ELISA) using different biotinylated LNA, PS-backbone or DNA-containing NA-oligonucleotides as outlined above are shown in FIGS. 1 to 5.
(§7) The selected monoclonal LNA-specific Abs were further characterized for binding characteristics and epitope mapped by immunoassay using capture molecules containing the following binding epitopes and combinations thereof • LNA (2′-O.4-C-methylene) • phosphorothioate in the NA backbone • nucleotides/sequence of bases • DNA • GalNAc-C6-modification
(§8) The results of the antibody characterization by solid phase immunoassay (ELISA) using different biotinylated LNA, PS-backbone or DNA-containing NA-oligonucleotides are shown in FIGS. 1 to 5.

[1] = tested on: Phosphorothioate Backbone; experiment: Epitope mapping solid phase immunoassay (ELISA); conditions: signal-to-noise (S/N) class
Excerpt: as §5, §6, §7, §8

[2] = tested on: LNA sequence (nucleotides/sequence of bases); experiment: Epitope mapping solid phase immunoassay (ELISA); conditions: for Impact of LNA sequence: signal-to-noise (S/N) class
Excerpt: as §5, §6, §7, §8

GalNAc-C6-modification = experiment: Epitope mapping solid phase immunoassay (ELISA); conditions: signal-to-noise (S/N) class
Excerpt: as §5, §6, §7, §8

LNA (2′-O,4-C-methylene) = experiment: Epitope mapping solid phase immunoassay (ELISA); conditions: signal-to-noise (S/N) class
Excerpt: as §5, §6, §7, §8

Molecule	Signal DNA1-Bi (DNA1-Bi)	Signal DNA4b-Bi (DNA4b-Bi)	Signal LNA2-Bi (LNA2-Bi)	Signal DNA2-Bi (DNA2-Bi)	Signal LNA1-Bi (LNA1-Bi)	Signal LNA4b-Bi (LNA4b-Bi)	Reactivity to DNA (DNA)	Reactivity to Phosphorothioate Backbone [1]	Impact of LNA sequence [2]	Reactivity to GalNAc-C6-modification (GalNAc-C6-modification)	Reactivity to LNA (2′-O,4-C-methylene) (LNA (2′-O,4-C-methylene))	LNA sequence specificity [2]
1.2.8 (antibody, listed as Mus musculus, V domains shown) VH: QIQLRESGPGLVAPSQSLSITCTVSGFSLTNYGVHWVRQPPGKGLEWLGVIWAGGSTIYNSALMSRLSISRDNSKSQVFLEMNSLQTYDTAMYYCARDRPFDGFFFSYWGQGTALTVSS VL: DVLMTQTPLSLPVSLGDQASISCRSSQAIVHRSGNTFLEWYLQKPGQSPKLLIYKVSNRFSGVPDRFSGSGSGTDFTLKINRVEAEDLGVYYCFQGSHVPYTFGSGTKLEIK	0.041 OD	0.034 OD	2.012 OD	0.037 OD	2.330 OD	1.916 OD	–	–	–	–	–	–
clone 1.2.8: anti-LNA monoclonal hybridoma antibody, VH SEQ ID NO: 30, VL SEQ ID NO: 39 (antibody, listed as Mus musculus, V domains shown) VH: QIQLRESGPGLVAPSQSLSITCTVSGFSLTNYGVHWVRQPPGKGLEWLGVIWAGGSTIYNSALMSRLSISRDNSKSQVFLEMNSLQTYDTAMYYCARDRPFDGFFFSYWGQGTALTVSS VL: DVLMTQTPLSLPVSLGDQASISCRSSQAIVHRSGNTFLEWYLQKPGQSPKLLIYKVSNRFSGVPDRFSGSGSGTDFTLKINRVEAEDLGVYYCFQGSHVPYTFGSGTKLEIK	–	–	–	–	–	–	− (−: S/N <2)	+++ (+++: S/N ≥10)	− (−: S/N <2)	− (−: S/N <2)	− (−: S/N <2)	–
1.4.10 (antibody, listed as Mus musculus, V domains shown) VH: QIQLRESGPGLVAPSQSLSITCTVSGFSLVNYGIHWVRQPPGKGLEWLGVIWAGGSTIYNSALMSRLSISRDNSKNQVFLEMNSLQTYDTAMYYCARDRPFDGFFFSYWGQGTALTVSS VL: DVLMTQTPLSLPVSLGDQASISCRSSQAIVHRSGNTFLEWYLQKPGQSPKLLIYKVSNRFSGVPDRFSGSGSGTDFTLKINRVEAEDLGVYYCFQGSHVPYTFGSGTKLEIK	0.084 OD	0.038 OD	3.154 OD	0.049 OD	3.398 OD	2.977 OD	–	–	–	–	–	–
clone 1.4.10: anti-LNA monoclonal hybridoma antibody, VH SEQ ID NO: 65, VL SEQ ID NO: 73 (antibody, listed as Mus musculus, V domains shown) VH: QIQLRESGPGLVAPSQSLSITCTVSGFSLVNYGIHWVRQPPGKGLEWLGVIWAGGSTIYNSALMSRLSISRDNSKNQVFLEMNSLQTYDTAMYYCARDRPFDGFFFSYWGQGTALTVSS VL: DVLMTQTPLSLPVSLGDQASISCRSSQAIVHRSGNTFLEWYLQKPGQSPKLLIYKVSNRFSGVPDRFSGSGSGTDFTLKINRVEAEDLGVYYCFQGSHVPYTFGSGTKLEIK	–	–	–	–	–	–	− (−: S/N <2)	+++ (+++: S/N ≥10)	+ (+: S/N: 3 to 5)	− (−: S/N <2)	− (−: S/N <2)	–
1.7.15 (antibody, V domains shown) VH: QVQLKQSGPSFVQPSQSLSITCTVSGFSLTTYGVHWVRQSPGKGLEWLGVIWRSGGTDYNAAFMSRLSITKDNSKSQVFFKMNSLQTDDTAIYYCTNLYYWGQGTTLTVSS VL: DIVMTQATFSNPVTLGTSVSISCRSSKSLLRSNGITYLYWYLQKPGQSPQLLIYQMSNLASGVPDRFSSSGSGTDFTLRISRVEAEDVGVYYCGQNLELPYTFGSGTKVEIK	0.060 OD	0.035 OD	2.815 OD	0.150 OD	2.195 OD	>4.000 OD	–	–	–	–	–	LNA sequence specific binders
clone 1.7.15: anti-LNA monoclonal hybridoma antibody, VH SEQ ID NO: 12, VL SEQ ID NO: 21 (antibody, listed as Mus musculus, V domains shown) VH: QVQLKQSGPSFVQPSQSLSITCTVSGFSLTTYGVHWVRQSPGKGLEWLGVIWRSGGTDYNAAFMSRLSITKDNSKSQVFFKMNSLQTDDTAIYYCTNLYYWGQGTTLTVSS VL: DIVMTQATFSNPVTLGTSVSISCRSSKSLLRSNGITYLYWYLQKPGQSPQLLIYQMSNLASGVPDRFSSSGSGTDFTLRISRVEAEDVGVYYCGQNLELPYTFGSGTKVEIK	–	–	–	–	–	–	− (−: S/N <2)	+++ (+++: S/N ≥10)	+++ (+++: S/N ≥10)	− (−: S/N <2)	− (−: S/N <2)	–
clone 1.5.13: anti-LNA monoclonal hybridoma antibody, VH SEQ ID NO: 81, VL SEQ ID NO: 89 (antibody, listed as Mus musculus, V domains shown) VH: QVQLKESGPGLVAPSQSLSITCTISGFSLTTYGVHWVRQPPGMGLEWLVVIWGDGSTTYNSALRSRLSISKDNSRSQVFLKMNSLQTDDTAMYYCARHGGRYALDYWGQGTSVTVSS VL: DIVMTQSPATLSVTPGDRVSLSCRASQSIGGYLHWYQQKSHESPRLLIKYASQSMSGIPPRFSGSGSGSDFTLSINSVAPEDVGVYYCQAGHTFPLTFGAGTKL	–	–	–	–	–	–	− (−: S/N <2)	+++ (+++: S/N ≥10)	−/+ (−/+: S/N: 2 to 3)	− (−: S/N <2)	− (−: S/N <2)	–
1.9.21 (antibody, V domains shown) VH: QVQLQQSGAELVRPGTSVKVSCKASGYAFTNYLIEWIKQRPGQGLEWIGVINPGSGGTNYNEKFRVKATLTADKSSSTAYMQLSSLTSDDSAVYFCARGGGYYWGQGTLVTVSA VL: DIVMTQAAPSVPVTPGESVSISCRSSKSLLHSNGNTYLFWFLQRPGQSPQVLIYRMSNLASGVPDRFSGSGSGTAFTLRISRVEAEDVGVYYCMQHLEYPYTFGSGTRLEIK	0.064 OD	0.110 OD	>4.000 OD	0.039 OD	>4.000 OD	3.556 OD	–	–	–	–	–	LNA sequence specific binders
clone 1.9.21: anti-LNA monoclonal hybridoma antibody, VH SEQ ID NO: 48, VL SEQ ID NO: 57 (antibody, listed as Mus musculus, V domains shown) VH: QVQLQQSGAELVRPGTSVKVSCKASGYAFTNYLIEWIKQRPGQGLEWIGVINPGSGGTNYNEKFRVKATLTADKSSSTAYMQLSSLTSDDSAVYFCARGGGYYWGQGTLVTVSA VL: DIVMTQAAPSVPVTPGESVSISCRSSKSLLHSNGNTYLFWFLQRPGQSPQVLIYRMSNLASGVPDRFSGSGSGTAFTLRISRVEAEDVGVYYCMQHLEYPYTFGSGTRLEIK	–	–	–	–	–	–	− (−: S/N <2)	+++ (+++: S/N ≥10)	+++ (+++: S/N ≥10)	− (−: S/N <2)	++ (++: S/N: 5 to 10)	–
